In US20140087995A1 (published 2014):
Numbered stars: 1 amine (or outer) side, 2 acyl side, 3 side chain; on linkers, the order of the positions; unused ones are H or OH. Bridge positions count the residues as written; N and C are the ends. Side chains are listed from the residue outwards. Ends that are not written are not given here. * marks the point of attachment. C20 diacid = O=C(O)CCCCCCCCCCCCCCCCCCC(=O)*; γGlu = O=C(O)[C@H](CCC(=O)[*:2])N[*:1]

T1: human calcitonin receptor (human, UniProt P30988 25-474)
T1 sequence (looked up): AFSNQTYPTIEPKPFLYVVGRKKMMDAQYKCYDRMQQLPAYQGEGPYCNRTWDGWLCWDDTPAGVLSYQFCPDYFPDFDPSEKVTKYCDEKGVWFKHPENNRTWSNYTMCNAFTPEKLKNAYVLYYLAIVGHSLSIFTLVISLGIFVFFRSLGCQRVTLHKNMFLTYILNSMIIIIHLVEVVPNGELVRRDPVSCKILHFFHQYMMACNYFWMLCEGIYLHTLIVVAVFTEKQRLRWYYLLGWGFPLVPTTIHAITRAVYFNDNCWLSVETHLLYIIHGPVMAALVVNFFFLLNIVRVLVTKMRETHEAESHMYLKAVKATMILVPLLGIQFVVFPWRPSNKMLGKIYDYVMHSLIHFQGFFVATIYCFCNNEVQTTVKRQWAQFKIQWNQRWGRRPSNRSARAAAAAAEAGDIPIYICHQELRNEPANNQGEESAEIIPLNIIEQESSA

T2: human amylin receptor (amylin 3(a) receptor: human calcitonin receptor co-expressed with RAMP-3) (human, UniProt P30988 25-474; O60896 24-148)
T2 sequence (looked up) 1: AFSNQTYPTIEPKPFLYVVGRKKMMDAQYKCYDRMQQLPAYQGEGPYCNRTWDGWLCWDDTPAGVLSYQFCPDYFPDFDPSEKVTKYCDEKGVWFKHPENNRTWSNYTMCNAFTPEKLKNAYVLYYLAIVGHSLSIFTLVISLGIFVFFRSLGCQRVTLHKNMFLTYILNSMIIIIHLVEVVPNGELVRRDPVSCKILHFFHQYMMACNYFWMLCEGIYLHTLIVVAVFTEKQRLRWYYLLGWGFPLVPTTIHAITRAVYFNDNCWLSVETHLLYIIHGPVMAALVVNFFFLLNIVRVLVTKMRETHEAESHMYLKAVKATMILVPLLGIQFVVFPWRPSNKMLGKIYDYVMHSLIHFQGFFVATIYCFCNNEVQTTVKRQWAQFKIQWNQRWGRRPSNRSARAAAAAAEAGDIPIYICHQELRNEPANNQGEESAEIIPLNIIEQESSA
T2 sequence (looked up) 2: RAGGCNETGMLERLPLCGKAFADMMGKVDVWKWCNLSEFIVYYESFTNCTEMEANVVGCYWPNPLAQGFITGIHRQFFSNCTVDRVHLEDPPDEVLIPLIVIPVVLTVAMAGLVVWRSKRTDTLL

T3: human calcitonin receptor (human, UniProt P30988 25-474)
T3 construct: whole, on cells; Assay used cell membranes of the transfected BHK cells; also called hCTR; hCT
T3 sequence (looked up): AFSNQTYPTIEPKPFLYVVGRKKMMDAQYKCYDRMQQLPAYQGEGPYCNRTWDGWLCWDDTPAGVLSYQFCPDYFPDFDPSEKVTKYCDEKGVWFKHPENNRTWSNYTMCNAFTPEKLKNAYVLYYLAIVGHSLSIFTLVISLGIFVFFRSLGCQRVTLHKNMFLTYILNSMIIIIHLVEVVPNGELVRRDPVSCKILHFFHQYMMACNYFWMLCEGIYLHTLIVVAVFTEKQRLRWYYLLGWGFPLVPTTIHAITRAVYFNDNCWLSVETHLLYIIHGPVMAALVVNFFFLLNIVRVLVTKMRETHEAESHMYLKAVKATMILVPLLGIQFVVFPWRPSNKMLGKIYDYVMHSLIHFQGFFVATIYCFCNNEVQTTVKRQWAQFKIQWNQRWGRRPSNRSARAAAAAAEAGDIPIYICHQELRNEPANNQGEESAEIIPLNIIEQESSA

T4: human amylin receptor (human, UniProt P30988 25-474; O60896 24-148, limits assumed)
T4 construct: whole, on cells; Assay used cell membranes of the Amylin 3(a)/CRE-luc BHK cells; the complex is called the human amylin receptor; also called hAmylin-R; hAmylinR
T4 sequence (looked up) 1: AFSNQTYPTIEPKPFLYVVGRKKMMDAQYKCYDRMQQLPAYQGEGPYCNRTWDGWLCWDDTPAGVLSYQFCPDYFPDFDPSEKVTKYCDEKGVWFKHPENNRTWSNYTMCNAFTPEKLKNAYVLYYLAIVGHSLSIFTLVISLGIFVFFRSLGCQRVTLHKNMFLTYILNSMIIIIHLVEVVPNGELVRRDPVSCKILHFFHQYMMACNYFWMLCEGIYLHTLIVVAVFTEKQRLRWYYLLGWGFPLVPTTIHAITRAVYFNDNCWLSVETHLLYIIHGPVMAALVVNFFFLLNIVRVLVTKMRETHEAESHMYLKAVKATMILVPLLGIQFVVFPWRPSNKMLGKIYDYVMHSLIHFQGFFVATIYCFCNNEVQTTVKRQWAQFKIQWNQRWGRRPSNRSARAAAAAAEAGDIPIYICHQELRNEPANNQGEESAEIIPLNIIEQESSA
T4 sequence (looked up) 2: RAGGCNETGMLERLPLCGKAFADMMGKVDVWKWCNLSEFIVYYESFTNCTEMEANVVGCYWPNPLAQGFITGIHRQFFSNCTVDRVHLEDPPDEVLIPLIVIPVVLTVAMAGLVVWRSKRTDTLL


Legend:
[1] = biological target: T1, human calcitonin receptor; assay: cell-based or functional assay
[2] = biological target: T2, human amylin receptor (amylin 3(a) …); assay: cell-based or functional assay
[3] = biological target: T2, human amylin receptor (amylin 3(a) …); assay: SPA competition binding, membranes of Amylin 3(a)/CRE-luc BHK cells, displacement of 125I-rat amylin (Assay V)
Method in brief: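 SPA beads with BHK Amylin 3(a)/CRE-luc cell membranes (35 ng/μL final) in 50 mM Hepes pH 7.4, 1 mM CaCl2, 5 mM MgCl₂, 0.1% OA, 0.02% Tween20.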

[4] = biological target: T3, human calcitonin receptor; assay: ratio IC50 hCTR / IC50 hAmylin-R of the two SPA competition assays; reference: human amylin receptor
Method in brief: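 Competition binding by SPA with cell membranes (35 ng/μL) and SPA beads in 50 mM Hepes pH 7.4 with 1 mM CaCl2, 5 mM MgCl2, 0.1% OA and 0.02% Tween20. Incubated 120 min at 25 °C with shaking, then counted.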

human amylin receptor = biological target: T4, human amylin receptor; assay: SPA radioligand competition (125I-rat amylin), membranes of BHK cells with human calcitonin receptor + RAMP-3
Description: The binding assay was performed using scintillation proximity assay (SPA) beads (RPNQ0001) from PerkinElmer and cell membranes from the Amylin 3(a)/CRE-luc cells (as described in Assay (II)) were used. Membranes were prepared in the following way; the cells were rinsed with PBS and incubated with Versene for approximately 5 min before harvesting. The cells were flushed with PBS and the cell-suspension was centrifuged for 5 min at 1000 rpm. Cells were homogenized (ultrathurrax) in a buffer containing 20 mM Na-HEPES and 10 mM EDTA (pH 7.4) and centrifuged at 20.000 rpm for 15 min. The resulting pellet was resuspended, homogenized and centrifuged (20.000 rpm, 15 min) in a buffer containing 20 mM Na-HEPES and 0.1 mM EDTA (pH 7.4, buffer 2). The resulting pellet was resuspended in buffer 2 and protein concentration was measured (BCA protein Assay, Pierce). The homogenate was kept cold during the whole procedure. The membranes were kept at −80° C. until use. The assay was performed in a 384 well Optiplate (PerkinElmer) in a total volume of 40 ul. Membranes were mixed with SPA beads. Final concentration of membranes 35 ng/μL final and SPA beads was 0.05 mg/well. Test-compounds were dissolved in DMSO and further diluted in assay buffer (50 mM Hepes, pH 7.4, 1 mM CaCl2, 5 mM MgCl₂, 0.1% OA and 0.02% Tween20). […] The final mixture was incubated with shaking at 400 rpm for 120 min at 25° C. prior to centrifugation (1500 rpm, 10 min). Samples were analyzed on TopCounter™ (Packard). The IC₅₀ was calculated using (one site binding competition analysis) GraphPad Prism5 as a measure of receptor affinity.

[5] = biological target: T3, human calcitonin receptor; assay: SPA radioligand competition (125I-calcitonin), membranes of BHK cells with human calcitonin receptor
Method in brief: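 BHK hCTR membranes 35 ng/μL + SPA beads 0.05 mg/well; buffer 50 mM Hepes pH 7.4, 1 mM CaCl2, 5 mM MgCl₂, 0.1% OA, 0.02% Tween20. 120 min, 25° C., shaking. Scintillation count; IC50 by one-site binding competition.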

Ratio hCT/hAmylin funct. (hCTR EC50 against hAmylin-R EC50) [1]	hCTR funct. EC50 (pM), CRE-luciferase reporter in BHK calcitonin (a) receptor cells [1] [pM]	hAmylin-R funct. EC50 (pM), CRE-luciferase reporter in BHK amylin 3(a) receptor cells [2] [pM]	IC50 [3] [nM]	Ratio hCT/hAmylin binding [4]	IC50 (human amylin receptor) [nM]	IC50 [5] [nM]	Binder
17.3	89600	5170	1.19				K([γGlu-γGlu-C20 diacid])CNTATCATQRLAEFLRHSSNNPGAILSSTNVGPETY-NH2 (disulfide 2-7 (inferred), Synthetic acylated analogue of human amylin)
				26	0.597	15.5	{C20 diacid-γGlu-γGlu}-KCNTATCATQRLAEFLRHSSPNFGAIPSSTNVGSNTY-NH2 (disulfide 2-7; SMILES CC[C@H](C)[C@H](NC(=O)[C@H](C)NC(=O)CNC(=O)[C@H](Cc1ccccc1)NC(=O)[C@H](CC(N)=O)NC(=O)[C@@H]1CCCN1C(=O)[C@H](CO)NC(=O)[C@H](CO)NC(=O)[C@H](Cc1c[nH]cn1)NC(=O)[C@H](CCCNC(=N)N)NC(=O)[C@H](CC(C)C)NC(=O)[C@H](Cc1ccccc1)NC(=O)[C@H](CCC(=O)O)NC(=O)[C@H](C)NC(=O)[C@H](CC(C)C)NC(=O)[C@H](CCCNC(=N)N)NC(=O)[C@H](CCC(N)=O)NC(=O)[C@@H](NC(=O)[C@H](C)NC(=O)[C@@H]1CSSC[C@H](NC(=O)[C@H](CCCCN)NC(=O)CC[C@H](NC(=O)CC[C@H](NC(=O)CCCCCCCCCCCCCCCCCCC(=O)O)C(=O)O)C(=O)O)C(=O)N[C@@H](CC(N)=O)C(=O)N[C@@H]([C@@H](C)O)C(=O)N[C@@H](C)C(=O)N[C@@H]([C@@H](C)O)C(=O)N1)[C@@H](C)O)C(=O)N1CCC[C@H]1C(=O)N[C@@H](CO)C(=O)N[C@@H](CO)C(=O)N[C@H](C(=O)N[C@@H](CC(N)=O)C(=O)N[C@H](C(=O)NCC(=O)N[C@@H](CO)C(=O)N[C@@H](CC(N)=O)C(=O)N[C@H](C(=O)N[C@@H](Cc1ccc(O)cc1)C(N)=O)[C@@H](C)O)C(C)C)[C@@H](C)O, Synthetic analogue; also called compound 15)

The next lines start with the binder.

Binder	Ratio hCT/hAmylin funct. (hCTR EC50 against hAmylin-R EC50) [1]	hCTR funct. EC50 (pM), CRE-luciferase reporter in BHK calcitonin (a) receptor cells [1] [pM]	hAmylin-R funct. EC50 (pM), CRE-luciferase reporter in BHK amylin 3(a) receptor cells [2] [pM]	IC50 [3] [nM]	Ratio hCT/hAmylin binding [4]	IC50 (human amylin receptor) [nM]	IC50 [5] [nM]
K([γGlu-γGlu-C20 diacid])CNTATCATQRLAEFLRHSSPNFGAIPSSTNVGPNTF-NH2 (disulfide 2-7 (inferred), Synthetic acylated analogue of human amylin)	9.9	2140	216	0.152			
KCNTATCATQRLANFLRHSSPNFGAIPSSTNVGSKTY (C20 diacid-gGlu on the alpha amino group of the N-terminal residue (Lys1); disulfide Cys2-Cys7; C-terminal amide, Synthetic analogue; also called compound 34) [N^α1-[(4S)-4-carboxy-4-(19-carboxynonadecanoylamino)butanoyl]-[Arg17,Pro21,Pro27,Lys35]-h-amylin]					64.4	1.14	73.4
